In the supplement of paper PMC10567573:
± gives the standard deviation.

Assay: protein stability index of a GFP-peptide fusion (GPS, HEK-293T) (PSI 1-6); higher = more stable
Conditions: c terminus: a fixed tail appended
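Further: 24-mer peptide tiles fused after GFP, lentivirally expressed, FACS-sorted into six equal bins by GFP/DsRed ratio, decoded by Illumina sequencing, PSI is the read-weighted mean bin number.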

Sequence | protein stability index (treatment: DMSO) | protein stability index (treatment: MLN4924 1 uM, 8 h)
KMIMDTAGNDPYCFVEFHEHRHAA [TIA1] | 3.28 ± 0.17 | 3.26 ± 0.29
KMTPVKNYQAHQSRVTMILFVLEL [WDFY2] | 3.19 ± 0.39 | 2.88 ± 0.5
KPILLQRMEGSQEVVNMAVIVPKE [WDFY2] | 3.7 ± 0.09 | 3.54 ± 0.4
KPQAPQKLDPTLSSCFFIESCGAQ | 3.35 ± 0.28 | 3.15 ± 0.21
KPYECNECGKAFSQSSYLSQHRRI [ZNF232] | 2.32 ± 0.073 | 2.44 ± 0.32
KQCIVAHPVNPPYYIPLVELVPHP [CRYL1] | 2.33 ± 0.17 | 2.47 ± 0.32
KQEENDVVEKLNLFLDLLQSYKDL [SNX8] | 1.95 ± 0.29 | 2.12 ± 0.31
KQILDGVHYLHSKRIAHFDLKPEN [DAPK3] | 2.91 ± 0.18 | 3.19 ± 0.26
KQLLSNKELILDKVYTHPKWNTQT [ZC2HC1C] | 2.79 ± 0.14 | 3.15 ± 0.23
KQVCKIAALHGLEETKKLANKYLV [KLHL14] | 2.03 ± 0.31 | 2.35 ± 0.32
KQYQQRAFGWFRCSSCQRSWASAQ [RTP4] | 2.39 ± 0.34 | 2.25 ± 0.54
KRIEAEEAIKGLNGQKPLGAAEPI [ELAVL3] | 4.77 ± 0.16 | 4.951 ± 0.042
KRKEEECSTTDHPYKKPYMETSPS [TBX5] | 5.09 ± 0.22 | 5.02 ± 0.18
KSNNRLKSLSIQYLELDRLVWRNS [FBXO39] | 2.38 ± 0.18 | 2.4 ± 0.3
KSPDNEDSGDSKDIRLTLMEEVLL [GOLPH3L] | 3.82 ± 0.3 | 4.07 ± 0.19
KSQTACLPFVLAAAVSRKKKRRMG [EHMT1] | 3.38 ± 0.31 | 3.61 ± 0.3
KSSSVDSELTSLCQSVLEDFNLCL [SMG5] | 2.95 ± 0.25 | 2.97 ± 0.3
KSTMDAISAEGFTDIDIDTLCAVL [BTBD1] | 2.21 ± 0.22 | 2.33 ± 0.3
KTEITDLRRTMQELEIELQSQLSM [KRT15] | 3.79 ± 0.39 | 3.5 ± 0.24
KTGILILILSIIFIEGYCTPEEVI [MAGEA10] | 3.53 ± 0.9 | 2.63 ± 0.36
KTILGNAHDNSEELERARELKEKE [ANKRD44] | 5.62 ± 0.16 | 5.51 ± 0.21
KTKVPSNDNSSDLLYDDLYDDDID [UBE2R2] | 5.28 ± 0.43 | 5.38 ± 0.36
KTLQPTKQPNCSSLFKLKPLSNKT [PLD5] | 3.08 ± 0.17 | 3.09 ± 0.35

Sequence | protein stability index (treatment: DMSO) | protein stability index (treatment: MLN4924 1 uM, 8 h)
KTPPSSCDSTNAAIAKQALKKPIK [KMT5A] | 5.11 ± 0.12 | 5.15 ± 0.3
KTRQKSEKQMEEKRRANQKSSAQG [PPEF2] | 5.25 ± 0.27 | 5.3 ± 0.2
KTVSLQIFSVLNSDDAAAPALETQ [SMOC2] | 3.2 ± 0.59 | 3.56 ± 0.38
KVIVVMRSLFIDRTIVKGYNENVY [MED27] | 2.77 ± 0.39 | 3.29 ± 0.33
KVRSYVKRALAEGAQIWCGEGVDK [ALDH8A1] | 2.77 ± 0.098 | 2.78 ± 0.29
KYQANITETQRLGLAMALEPNTTF [FANCE] | 3.36 ± 0.17 | 3.4 ± 0.15
LAAALAQHSVPLQLELRAGAERLD [TRADD] | 2.97 ± 0.36 | 2.94 ± 0.12
LAALCLAGPPAPARACQLPSEWRP [CCDC3] | 2.96 ± 0.2 | 2.92 ± 0.058
LAEVAPVVTTEHILVSVAAGVSLS [PYCR3] | 2.22 ± 0.27 | 2.44 ± 0.21
LAHLAPLFDNPKLDKELRAMLREK [INTS3] | 2.6 ± 0.41 | 2.65 ± 0.5
LARADLEMQIENLKEELAYLKKNH [KRT17] | 3.12 ± 0.35 | 3.21 ± 0.45
LAVSNMGARSKGQCPEPPIVVHCS [PTPN9] | 3 ± 0.33 | 2.95 ± 0.28
LDKKVEKVTISNRLVSSPCCIVTS [HSP90AB1] | 3.28 ± 0.34 | 2.98 ± 0.27
LDNNASASGNATQTESGSEEVSST [C10orf62] | 5.7 ± 0.2 | 5.64 ± 0.15
LDSQTEIYQYVQNSMAPHPARDYV [DLC1] | 2.99 ± 0.42 | 3.09 ± 0.25
LEAEKLVMFQRRYYKPGLLMMCFI [SCD] | 3.26 ± 0.91 | 2.8 ± 0.44
LEASVQDDAGTSGGPSSPPSDPPA [C2CD2L] | 5.53 ± 0.31 | 5.66 ± 0.12
LEDIYVMPEYRGQGIGSKIIKKVA [SAT2] | 3.45 ± 0.37 | 3.79 ± 0.27
LEERRVKEVVKKHSQFIGYPITLY [HSP90AB1] | 2.48 ± 0.068 | 
LELGHWLYQTELVENECYQVFLDR [TOR1AIP2] | 2.38 ± 0.038 | 2.26 ± 0.32
LELKFVSSLRRQFEFSVDSFQIVL [TENT5D] | 3.41 ± 0.5 | 2.91 ± 0.23
LENDTISKQLTLEQLRREKIDLEN [CCDC6] | 4.96 ± 0.27 | 4.88 ± 0.23
LEQFLSILPKELQGWVREHCPESG [ZSCAN9] | 2.5 ± 0.15 | 2.71 ± 0.29

Sequence | protein stability index (treatment: DMSO) | protein stability index (treatment: MLN4924 1 uM, 8 h)
LERASATLQDLVFDECGITDDQLL [PRAME] | 4.65 ± 0.36 | 4.71 ± 0.35
LERYVASLMPLQKSISPWKSPPQL [DENND6A] | 2.16 ± 0.28 | 2.21 ± 0.25
LESEGKNSKKEEPQELLQSQDFVG [ATE1] | 5.73 ± 0.27 | 5.54 ± 0.14
LFFTALMITVPIGLYFTTKSYIFE [VMA21] | 2.73 ± 0.46 | 2.58 ± 0.055
LFGGEFEDSVFEERPERRSGPPAS [C8orf76] | 4.75 ± 0.18 | 4.69 ± 0.2
LFRELWRYHFATGVWHQMGTDGYM [KLHDC10] | 3 ± 0.66 | 2.8 ± 0.47
LFRWPDLQHAVELKPLCGCHSFAA [SMAD6] | 2.27 ± 0.26 | 2.13 ± 0.49
LGDALAGPPRAPGRSGWPAGGAPG [HES6] | 3.88 ± 0.23 | 3.94 ± 0.44
LGFAYAKEDKIMLDDRKNEEDGGA [MIA2] | 4.96 ± 0.13 | 5.18 ± 0.2
LGFGPTYVVLAYTLPPASRFIIIF [SOAT1] | 3.09 ± 0.14 | 3.03 ± 0.77
LGFKANIMNEKCVVENAEKILGYL [SLC6A17] | 2.43 ± 0.23 | 2.26 ± 0.14
LGSDDEEQEDPADYCKGGYHPVKI [SRPK2] | 4.81 ± 0.31 | 4.67 ± 0.31
LGTDPTHVMGLYPDLLPTDYRKQL [VPS39] | 3.34 ± 0.36 | 3.42 ± 0.41
LHAVADIHCENCKTTLGWKYEQAF [YPEL3] | 2.38 ± 0.49 | 2.14 ± 0.46
LHFIATNYLIFSQKPEFQDLSVEE [RHOBTB3] | 2.5 ± 0.77 | 2.15 ± 0.38
LHRILHHKHVVQFYHYFEDKENIY [PLK2] | 2.58 ± 0.51 | 2.32 ± 0.38
LHSAIYAARPDVKCVVHIHTPAGA [ADD1] | 2.24 ± 0.22 | 2.11 ± 0.28
LHVACELARPECLFLLLGHGASPG [ANKRD9] | 2.53 ± 0.61 | 2.44 ± 0.45
LIKAGADIELGCSTPLMEAAQEGH [ANKRD17] | 4.21 ± 0.57 | 4.14 ± 0.35
LIQRWYRRYVARLEMRRRCTWSIF [PPEF2] | 2.43 ± 1.3 | 2.73 ± 0.57
LKIFTEDLPEVESLPRDRVLGFLI [VPS39] | 2.25 ± 0.49 | 2.23 ± 0.43
LKNEIQEVEELDNWQPAVPLMHML [SPATS1] | 2.8 ± 0.45 | 3.18 ± 0.38
LKPNNLSCDLPEERYRHEIAHDGQ [KLHDC10] | 4.8 ± 0.2 | 4.8 ± 0.074

Sequence | protein stability index (treatment: DMSO) | protein stability index (treatment: MLN4924 1 uM, 8 h)
LKQLLTETDVWFSKQRKDFEGMAF [GMCL1] | 2.7 ± 0.48 | 2.52 ± 0.19
LKSSGLCESLTYGLPFILRPTSCW [M1AP] | 2.9 ± 0.31 | 3.06 ± 0.73
LLDAHILEWHDSLFQILSERQDMY [ZNF511] | 2.32 ± 0.4 | 2.17 ± 0.23
LLETDAGPAASEGAEQPPDLHCVL [GADD45A] | 4.82 ± 0.29 | 4.78 ± 0.18
LLHGLNLLWRKQLFCDVTLTAQGQ [KLHL14] | 3.3 ± 0.17 | 2.88 ± 0.53
LLPLVTLCDGNPRRPSPVLRHLEL [SCNN1D] | 2.42 ± 0.42 | 2.27 ± 0.46
LLRPKYRAPQGCSGVDECARQEGL [PBXIP1] | 3.56 ± 0.23 | 3.65 ± 0.37
LLRRSVEGASSDNGCEVKNRKSIL [PHTF1] | 3.99 ± 0.17 | 4.05 ± 0.55
LLTRKVICKSDAPTGDVLLDEALK [GOLPH3] | 2.51 ± 0.25 | 2.91 ± 0.39
LLTTSPVFPHYIEKPLGRVGVFLD [TRIM43] | 2.08 ± 0.12 | 2.31 ± 0.25
LMRSQSPKAQPQTWKSGKQTMLSH [TRIM29] | 3.34 ± 0.33 | 3.6 ± 0.28
LMRTCERLVKEGRFVPSNPIGILT [PPTC7] | 2.65 ± 0.17 | 2.53 ± 0.23
LNGLQHLKAKKVWYDMFRDAAAIL [ZMAT5] | 2.63 ± 0.56 | 2.49 ± 0.34
LNVATFLDPRYKRLPFLSAFERQQ [ZBED1] | 2.37 ± 0.086 | 2.43 ± 0.42
LNVDAAVQQWLQKGTPASKLILGM [CHIT1] | 2.21 ± 0.36 | 2.25 ± 0.39
LNVNLNSVVLRRARGGAVSARYVL [DUSP5] | 2.19 ± 0.54 | 2.26 ± 0.51
LNYTYKRFEGLTQRGSIPTYMKAG [STK38L] | 2.5 ± 0.18 | 2.67 ± 0.22
LPIKIAAIIASLTFLYTLLREVIH [STEAP1] | 2.53 ± 0.41 | 1.82 ± 0.64
LPISTVREVALLRRLEAFEHPNVV [CDK4] | 2.62 ± 0.21 | 2.71 ± 0.45
LPLPEQIHKASATIIEPAGESDNP [INTS4] | 5.5 ± 0.26 | 5.49 ± 0.19
LQAFGETLLLELEQDSGVQVEGLT [ADAMTS4] | 3.65 ± 0.63 | 3.79 ± 0.27
